Legend:
[1] = target: hamster IgG (pooled hamster plasma)
[2] = target: rhesus macaque IgG (NHP plasma)
[3] = target: total IgG in human serum samples and pooled human plasma

B1: immunoglobulin G-degrading enzyme of Streptococcus pyogenes (IdeS) (protein)
chain: DSFSANQEIRYSEVTPYHVTSVWTKGVTPPANFTQGEDVFHAPYVANQGWYDITKTFNGKDDLLCGAATAGNMLHWWFDQNKDQIKRYLEEHPEKQKINFNGEQMFDVKEAIDTKNHQLDSKLFEYFKEKAFPYLSTKHLGVFPDHVIDMFINGYRLSLTNHGPTPVKEGSKDPRGGIFDAVFTRGDQSKLLTSRHDFKEKNLKEISDLIKKELTEGKALGLSHTYANVRINHVINLWGADFDSNGNLKAIYVTDSDSNASIGMKKYFVGVNSAGKVAISAKEIKEDNIGAQVLGLFTLSTGQDSWNQTN
B1 was tested, and the “cleavage of IgG, non-reducing SDS-PAGE and Coomassie Blue staining” value [1] was “IdeS was effective to cleave the IgG in the pooled hamster plasma and pooled human plasma in vitro”, the “cleavage of IgG, non-reducing SDS-PAGE and Coomassie stain” value [2] was “In the NHP samples, IgG was similarly cleaved in all NAb titer groups” and the “cleavage of IgG, non-reducing SDS-PAGE and Coomassie Blue staining” value [3] was “IdeS was effective to cleave the IgG in the pooled hamster plasma and pooled human plasma in vitro”. The “cleavage of IgG, non-reducing SDS-PAGE and Coomassie stain” value [3] was “the lowest dose of IdeS cleaved all total IgG (~150 kD) to liberate the Fc fragment (~25 kD)”.
